From US20210206848A1 (Stanford University, published 2021) come the findings set out here.

As a reminder, the Kd is the constant that tells how readily two partners part at equilibrium.

The target in assay [1] is T1, extracellular region of human CD45 (human, UniProt P08575 26-577).
T1 construct: also called hCD45
T1 sequence: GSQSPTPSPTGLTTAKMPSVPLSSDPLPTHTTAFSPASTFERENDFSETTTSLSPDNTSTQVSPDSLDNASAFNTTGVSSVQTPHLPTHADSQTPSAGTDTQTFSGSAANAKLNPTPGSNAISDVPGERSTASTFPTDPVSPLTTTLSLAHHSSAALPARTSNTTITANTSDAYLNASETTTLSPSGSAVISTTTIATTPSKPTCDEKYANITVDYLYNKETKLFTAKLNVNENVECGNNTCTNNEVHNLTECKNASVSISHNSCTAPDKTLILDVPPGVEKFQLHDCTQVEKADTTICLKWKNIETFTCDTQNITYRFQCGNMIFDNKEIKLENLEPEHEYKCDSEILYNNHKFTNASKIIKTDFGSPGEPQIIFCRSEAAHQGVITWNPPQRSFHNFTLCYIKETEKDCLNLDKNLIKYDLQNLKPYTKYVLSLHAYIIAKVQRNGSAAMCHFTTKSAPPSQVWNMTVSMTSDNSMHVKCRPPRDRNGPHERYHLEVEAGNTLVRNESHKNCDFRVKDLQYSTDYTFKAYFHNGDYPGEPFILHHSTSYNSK
The experiment in a line: SPR; target CD45 extracellular region. Background: In SPR one partner is held on a chip, and binding of the other changes the refractive index at the surface.

Assay [2] has as its target T2, extracellular region of human PD-1 (human).
T2 construct: also called hPD-1
The experiment in a line: SPR; target PD-1 extracellular region.

Assay [3] has as its target T2, extracellular region of human PD-1. Put plainly: SPR.
Assay [4] concerns the target T1, extracellular region of human CD45. Put plainly: SPR.

T2 sequence (chain, as listed by the source limits assumed): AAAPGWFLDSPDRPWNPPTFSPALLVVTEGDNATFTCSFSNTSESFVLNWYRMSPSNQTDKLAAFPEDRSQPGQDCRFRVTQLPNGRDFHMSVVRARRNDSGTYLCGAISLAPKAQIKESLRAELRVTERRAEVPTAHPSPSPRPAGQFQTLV

B1: CD45-PD1(Nivo)-Stabilized (bispecific antibody)
chain: QVQLVESGAEVKKPGASVKVSCKASGYTFTNYIIHWVKQEPGQGLEWIGYFNPYNHGTKYNEKFKGRATLTADKSISTAYMELSSLTSEDTAVYYCARSGPYAWFDTWGQGTTVTVSSGGGGSEIVLTQSPATLSLSPGERATLSCRASQSVSSYLAWYQQKPGQAPRLLIYDASNRATGIPARFSGSGSGTDFTLTISSLEPEDFAVYYCQQSSNWPRTFGQTKVEIKRRADAAAAGGGGSGGGGSGGGGSGGGGTGGGGSQVQLVESGGGVVQPGRSLRLDCKASGITFSNSGMHWVRQAPGKGLEWVAVIWYDGSKRYYADSVKGRFTISRDNSKNTLFLQMNSLTAEDTAVYYCATNDDYWGQGTLVTVSSGGGGSDILLTQSPATLSLSPGERATLSCRASQNIGTSIQWYQQKPGQAPRLLIRSSSESISGISSRFSGSGSGTDFTLTISSLEPEDFAVYYCQQSNTWPFTFGQGTKLEIKAAAHHHHHHHH
notes: also called αCD45-PD1(Nivo); αCD45-PD1 (Nivo)
Turning to B1, the Kd in assay [1] is about 0.3 µM; in assay [2], about 0.006 µM.

B2: CD45-PD1(VHH) (bispecific antibody)
chain: DVQLVESGGGVVQPGGSLRLSCAASGSIASIHAMGWFRQAPGKEREFVAVITWSGGITYYADSVKGRFTISRDNSKNTVYLQMNSLRPEDTALYYCAGDKHQSSWYDYWGQGTLVTVSSGGGSLEVLFQGPGSGSDILLTQSPATLSLSPGERATLSCRASQNIGTSIQWYQQKPGQAPRLLIRSSSESISGISSRFSGSGSGTDFTLTISSLEPEDFAVYYCQQSNTWPFTFGQGTKLEIKGGSTRSSSSGGGGSGGGGQVQLVESGAEVKKPGASVKVSCKASGYTFTNYIIHWVKQEPGQGLEWIGYFNPYNHGTKYNEKFKGRATLTADKSISTAYMELSSLRSEDTAVYYCARSGPYAWFDTWGQGTTVTVSSAAAHHHHHHHH
notes: Anti-CD45 scFv fused to an anti-human PD-1 nanobody (VHH, from US20170137517A1); also called αCD45-PD1(VHH); 2nd generation anti-human RIPR-PD1
As to B2, the equilibrium dissociation constant (Kd) in assay [3] is about 0.005 µM; in assay [4] it was about 0.7 µM.
